B1: N332H-N388M-K394R-C430N-L432F-L434W-S436N (protein)
chain: MFLKSLREQINLLKRQGDLRIINRPVDSYLEAAAIIRRSTETKAPVPLMTNIKGYPGCSIVGGLAALSSNPEYPLSRVAMSLGLSTTASAQSIVQYLIDGLKKTPYLPVEIDSNSAPCKQNILRGEDASLAHFPIPQVHQHDGNRYVNTWGVFIVESPDGQWCNWSIQRVQYLNDRQMIALVFPSQHISDIWEEWVKIGKPMPYALVQGCEPIVPYIAGLPLLERNVNEAEYIGALYGKGIEVVKCETHDLRVPASSEVVIEGYFAITREGVEGPFGEFAGYIPNENSLQPILSITAISWQDDPIWPVVAEGKPVDEYHTCSGIGDAAAIQHVLLTANLPVSFVWVPLYSACHLMIVSINRHWRQTHPDLTSEQLTKKVGDVIHQTRMSIKLPRIVVLDDDVDPADTESLLWALATRIHPERKRYFYESNIFPWLNCYSEEERHNRKGKRVIIDALLPENHGAISSFDYAYPDDIKQRVLMHWETDFSHD
B2: I283T-N285P-N287T-Q290E-S322T-N388M-K394R-E421F-C430A-L432F-L434W-S436N-dG462 (protein)
chain: B1 chain with I283T, N285P, N287T, Q290E, S322T, H332N, E421F, N430A
B3: I283T-N285P-N287T-Q290E-S322T-N388M-K394R-C430A-L432F-L434W-S436N-C437I-dG462 (protein)
chain: B1 chain with I283T, N285P, N287T, Q290E, S322T, H332N, N430A, C437I
B4: I283T-N285P-N287T-Q290E-S322T-N388M-K394R-C430A-L432F-L434W-S436N-Y438W-dG462 (protein)
chain: B1 chain with I283T, N285P, N287T, Q290E, S322T, H332N, N430A, Y438W
B5: I283T-N285P-N287T-Q290E-S322T-N388M-K394R-i421aS-C430A-L432F-L434W-S436N-dG462 (protein)
chain: B1 chain with I283T, N285P, N287T, Q290E, S322T, H332N, N430A
B6: I283T-N285P-N287T-Q290E-S322T-N388M-K394R-i421aI-C430A-L432F-L434W-S436N-dG462 (protein)
chain: B1 chain with I283T, N285P, N287T, Q290E, S322T, H332N, N430A
B7: S322T-N388M-K394R-C430N-L432F-L434W-S436N (protein)
chain: B1 chain with S322T, H332N
B8: I283T-N285P-N287T-Q290E-S322T-N388M-K394R-C430A-i430aN-L432F-L434W-S436N-dG462 (protein)
chain: B1 chain with I283T, N285P, N287T, Q290E, S322T, H332N, N430A
B9: I283T-N285P-N287T-Q290E-S322T-N388M-K394R-C430A-i430aG-L432F-L434W-S436N-dG462 (protein)
chain: B1 chain with I283T, N285P, N287T, Q290E, S322T, H332N, N430A
B10: I283T-N285P-N287T-Q290E-S322T-N388M-K394R-C430A-L432F-L434W-S436N-K447T-dG462 (protein)
chain: B1 chain with I283T, N285P, N287T, Q290E, S322T, H332N, N430A, K447T
B11: I283T-N285P-N287T-Q290E-S322T-N388M-K394R-i421aR-C430A-L432F-L434W-S436N-dG462 (protein)
chain: B1 chain with I283T, N285P, N287T, Q290E, S322T, H332N, N430A
B12: I283T-N285P-N287T-Q290E-S322T-N388M-K394R-C430A-L432F-L434W-S436N-C437L-dG462 (protein)
chain: B1 chain with I283T, N285P, N287T, Q290E, S322T, H332N, N430A, C437L
B13: I283T-N285P-N287T-Q290E-S322T-N388M-K394R-C430A-L432F-L434W-S436N-C437M-dG462 (protein)
chain: B1 chain with I283T, N285P, N287T, Q290E, S322T, H332N, N430A, C437M
B14: I283T-N285P-N287T-Q290E-S322T-N388M-K394R-i421aE-C430A-L432F-L434W-S436N-dG462 (protein)
chain: B1 chain with I283T, N285P, N287T, Q290E, S322T, H332N, N430A
B15: I283T-N285P-N287T-Q290E-S322T-N388M-K394R-C430A-L432F-L434W-S436N-Y438M-dG462 (protein)
chain: B1 chain with I283T, N285P, N287T, Q290E, S322T, H332N, N430A, Y438M
B16: I283T-N285P-N287T-Q290E-S322T-N388M-K394R-C430A-i430aS-L432F-L434W-S436N-dG462 (protein)
chain: B1 chain with I283T, N285P, N287T, Q290E, S322T, H332N, N430A
B17: P284E-N388M-K394R-C430N-L432F-L434W-S436N (protein)
chain: B1 chain with P284E, H332N
B18: D27N-I283T-N285P-N287T-Q290E-S322T-N388M-K394R-C430A-L432F-L434W-S436N-G448T-dG462 (protein)
chain: B1 chain with D27N, I283T, N285P, N287T, Q290E, S322T, H332N, N430A, G448T
B19: I283T-N285P-N287T-Q290E-S322T-N388M-K394R-i429aN-C430A-L432F-L434W-S436N-dG462 (protein)
chain: B1 chain with I283T, N285P, N287T, Q290E, S322T, H332N, N430A
B20: I283T-N285P-N287T-Q290E-S322T-N388M-K394R-i421aP-C430A-L432F-L434W-S436N-dG462 (protein)
chain: B1 chain with I283T, N285P, N287T, Q290E, S322T, H332N, N430A
B21: I283T-N285P-N287T-Q290E-S322T-N388M-K394R-C430A-L432F-L434W-S436N-G448C-dG462 (protein)
chain: B1 chain with I283T, N285P, N287T, Q290E, S322T, H332N, N430A, G448C
B22: I283T-N285P-N287T-Q290E-S322T-N388M-K394R-i424aA-C430A-L432F-L434W-S436N-dG462 (protein)
chain: B1 chain with I283T, N285P, N287T, Q290E, S322T, H332N, N430A
B23: I283T-N285P-N287T-Q290E-S322T-N388M-K394R-i424aS-C430A-L432F-L434W-S436N-dG462 (protein)
chain: B1 chain with I283T, N285P, N287T, Q290E, S322T, H332N, N430A
B24: I283T-N285P-N287T-Q290E-S322T-N388M-K394R-i421aD-C430A-L432F-L434W-S436N-dG462 (protein)
chain: B1 chain with I283T, N285P, N287T, Q290E, S322T, H332N, N430A
B25: I283T-N285P-N287T-Q290E-S322T-N388M-K394R-i424aW-C430A-L432F-L434W-S436N-dG462 (protein)
chain: B1 chain with I283T, N285P, N287T, Q290E, S322T, H332N, N430A
B26: I283T-N285P-N287T-Q290E-S322T-N388M-K394R-C430A-i430aC-L432F-L434W-S436N-dG462 (protein)
chain: B1 chain with I283T, N285P, N287T, Q290E, S322T, H332N, N430A
B27: I283T-N285P-N287T-Q290E-S322T-N388M-K394R-i424aD-C430A-L432F-L434W-S436N-dG462 (protein)
chain: B1 chain with I283T, N285P, N287T, Q290E, S322T, H332N, N430A
B28: I283T-N285P-N287T-Q290E-S322T-N388M-K394R-i424aL-C430A-L432F-L434W-S436N-dG462 (protein)
chain: B1 chain with I283T, N285P, N287T, Q290E, S322T, H332N, N430A
B29: I283T-N285P-N287T-Q290E-S322T-N388M-K394R-i421aT-C430A-L432F-L434W-S436N-dG462 (protein)
chain: B1 chain with I283T, N285P, N287T, Q290E, S322T, H332N, N430A
B30: I283T-N285P-N287T-Q290E-S322T-N388M-K394R-C430A-L432F-L434W-S436N-S439P-dG462 (protein)
chain: B1 chain with I283T, N285P, N287T, Q290E, S322T, H332N, N430A, S439P
B31: I283T-N285P-N287T-Q290E-S322T-N388M-K394R-C430A-L432F-L434W-S436N-C437T-dG462 (protein)
chain: B1 chain with I283T, N285P, N287T, Q290E, S322T, H332N, N430A, C437T
B32: I283T-N285P-N287T-Q290E-S322T-N388M-K394R-i426aL-C430A-L432F-L434W-S436N-dG462 (protein)
chain: B1 chain with I283T, N285P, N287T, Q290E, S322T, H332N, N430A

Substitutions are numbered along the chain they refer to. In names and notes the source's numbering stands.

This test deals with 3-methylcrotonic acid. The test is classed as biochemical, Yersinia frederiksenii. Also noted: key: “+” representing a low increase in activity; “++++” representing a high increase in activity.
As for B1, the “Activity relative to WT” value is “+”. Regarding B2, the “Activity relative to WT” value was “++++”. For the molecule B3, the “Activity relative to WT” value is listed as “++++”.

As for B4, the “Activity relative to WT” value is given as “++++”.

On to B5, for which the “Activity relative to WT” value is “++++”.

In the case of B6, the “Activity relative to WT” value is given as “++++”.

Consider B7, for which the “Activity relative to WT” value is reported as “+”.

With B8, the “Activity relative to WT” value is reported as “++++”. Regarding B9, the “Activity relative to WT” value was “++++”.

For B10, the “Activity relative to WT” value was “++++”. Regarding B11, the “Activity relative to WT” value was “++++”. Regarding B12, the “Activity relative to WT” value is given as “++++”. Take B13: the “Activity relative to WT” value was “++++”.

As to B14, the “Activity relative to WT” value is on record as “++++”. Turning to B15, the “Activity relative to WT” value was “++++”. In the case of B16 it was “++++”. Next, B17: “+”; B18: “++++”. On to B19, for which the “Activity relative to WT” value is listed as “++++”. Next, B20: “++++”.

In the case of B21, the “Activity relative to WT” value was “++++”. For the molecule B22, the “Activity relative to WT” value was “++++”. Turning to B23, the “Activity relative to WT” value is “++++”. Next, B24: “++++”; B25: “++++”; B26: “++++”. B27: the “Activity relative to WT” value was “++++”.

As to B28, the “Activity relative to WT” value was “++++”.

B29: the “Activity relative to WT” value was “++++”. Turning to B30, the “Activity relative to WT” value is reported as “++++”. For B31, the “Activity relative to WT” value was “++++”. Turning to B32, the “Activity relative to WT” value is reported as “++++”.

These data come from patent US20250327097A1, “ORGANISMS PRODUCING LESS CROTONIC ACID” (Global Bioenergies, priority 2021, published 2025).
